Source: patent US20070142318A1, “Compositions, methods and kits for repressing virulence in gram positive bacteria” (priority 2004, published 2007)
Where two headings read alike, the source gives them in different places.

Columns and labels:
CodY [1] = target: T1, CodY (Bacillus subtilis, UniProt P39779); assay: Gel shift assay, stimulation of CodY binding to target DNA by effectors; design: species or system B. subtilis; conditions: for stimulation of CodY binding to new target genes and dpp promoter region: amino acids 10-30 mM
T1 sequence (P39779 1-259): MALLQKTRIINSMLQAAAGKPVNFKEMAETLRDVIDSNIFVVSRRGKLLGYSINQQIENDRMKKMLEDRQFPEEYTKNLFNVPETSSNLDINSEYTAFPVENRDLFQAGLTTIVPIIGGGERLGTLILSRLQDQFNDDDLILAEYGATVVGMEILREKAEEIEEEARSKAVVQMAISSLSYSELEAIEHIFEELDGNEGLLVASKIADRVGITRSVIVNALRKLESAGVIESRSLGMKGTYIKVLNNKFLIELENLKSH
Description: A test of whether BCAAs have any direct effect on CodY activity was performed. […] In all cases, the apparent dissociation constant for binding was substantially below the concentration of CodY inside the cell (4 μM, see below). […] By regulating gene expression in response to both the GTP level and the availability of certain amino acids, CodY can insure that the cell responds in a coherent way to many types of nutritional stress.
The effects of GTP and BCAAs at different CodY targets can vary. At several target sites, BCAAs and GTP were each found to have small stimulatory effects on binding (in a gel shift assay), but the mixture strongly stimulates (FIG. 1). […] Some genes may respond to CodY in its GTP-bound conformation, other genes to CodY in its BCAA-bound conformation, and still other genes to CodY bound to both kinds of effectors. These variations could reflect differences in specificity of binding or differences in affinity of binding.
The concentration dependence of stimulation of DNA binding by effectors is assessed. At the dpp promoter, GTP at 600 μM increased the fraction of DNA that was bound by a constant concentration of CodY (in a gel shift assay) from 10% to 50%. Titration assays of this type, using varying concentrations of GTP, isoleucine, and valine, provide a measure of the effective concentrations of each of these effectors.

CodY [2] = target: T1, CodY; conditions: cited from earlier work
CodY [3] = target: T1, CodY; conditions: cited from earlier work; remark: listed apart in the source
[4] = test system: CodY (Staphylococcus aureus); assay: EMSA; conditions: concentration giving shift; 2 mM GTP + 10 mM each Ile, Val, Leu
wild-type cells = conditions: excess nutrients; cited from earlier work
[5] = test system: ilvB promoter lacZ fusions; conditions: GTP limitation by addition of decoyinine; cited from earlier work
[6] = test system: CodY R214E R214E (Bacillus subtilis); assay: EMSA; conditions: GTP + ILV; also >500 without effectors
[7] = test system: CodY S215T S215T (Bacillus subtilis); assay: EMSA
CodY (Bacillus subtilis) = assay: EMSA; conditions: 2 mM GTP + 10 mM each Ile, Leu, Val; 150 nM without effectors
[8] = test system: CodY A207D A207D (Bacillus subtilis); assay: EMSA; conditions: GTP + ILV; also >500 without effectors
dpp promoter region = assay: Gel mobility shift assay of CodY binding to the dpp promoter region; conditions: CodY concentration that shifted 50% of the DNA
dpp-lacZ = dpp-lacZ expression in vivo (β-galactosidase); conditions: for β-galactosidase expression (Miller units) in mid-exponential cells: dpp-lacZ; for derepression of expression in vivo: versus wild type
[9] = read-out: Estimated KD (nM), +GTP, ILV, GTP (2 mM) and isoleucine, valine and leucine (10 mM each)
[10] = read-out: Estimated KD (nM), No effectors

## CC(C)[C@H](N)C(=O)O [valine]
CodY [1]
  stimulation of CodY binding to new target genes and dpp promoter region: stimulated significantly

## Nc1nc2c(ncn2[C@@H]2O[C@H](COP(=O)(O)OP(=O)(O)OP(=O)(O)O)[C@@H](O)[C@H]2O)c(=O)[nH]1 [GTP, guanosine triphosphate]
CodY [1]; dpp promoter, GTP at 600 μM, 10% without
  fraction of DNA bound by a constant concentration of CodY: 50%
CodY [1]; yhdG regulatory region, alone or in combination
  effect on CodY binding at the yhdG regulatory region: only a small effect
CodY [2]; 300 μM GTP (typical of early stationary phase cells)
  repression of dpp transcription by CodY: almost no repression
CodY [2]; 2 mM GTP
  inhibition of dpp transcription by CodY: ~80%
CodY [2]; read-out: GTP concentration giving 50% repression of transcription from the dpp promoter
  EC50: ~1500 µM
CodY [3]
  binding to CodY compared with ATP, CTP or UTP: more avidly

## nuc promoter region
[4]
  binding: 160 nM

## C=C1O[C@@](CO)(n2cnc3c(N)ncnc32)[C@H](O)[C@@H]1O [decoyinine]
wild-type cells
  sporulation of wild-type cells: failed to sporulate efficiently unless decoyinine was added
[5]
  induction of ilvB-lacZ fusions with or without T-box: induced both fusions

## CC[C@H](C)[C@H](N)C(=O)O [isoleucine]
CodY [1]
  stimulation of CodY binding to new target genes and dpp promoter region: stimulated significantly

## hla promoter region
[4]
  binding: 160 nM

## CC(C)C[C@H](N)C(=O)O [leucine]
CodY [1]
  stimulation of CodY binding to new target genes and dpp promoter region: not

## dpp promoter region
[6]
  Kd: > 0.5 µM
[7]
  Kd: > 0.5 µM
CodY (Bacillus subtilis)
  Kd: 0.02 µM
[8]
  Kd: > 0.5 µM

B1: A207D (protein, UniProt P39779 2-259, looked up, variant A207D)
Global transcriptional …: ALLQKTRIINSMLQAAAGKPVNFKEMAETLRDVIDSNIFVVSRRGKLLGYSINQQIENDRMKKMLEDRQFPEEYTKNLFNVPETSSNLDINSEYTAFPVENRDLFQAGLTTIVPIIGGGERLGTLILSRLQDQFNDDDLILAEYGATVVGMEILREKAEEIEEEARSKAVVQMAISSLSYSELEAIEHIFEELDGNEGLLVASKIDDRVGITRSVIVNALRKLESAGVIESRSLGMKGTYIKVLNNKFLIELENLKSH
Dpp promoter region; [9]
  Kd: > 500 nM
Dpp promoter region; [10]
  Kd: > 500 nM
dpp-lacZ
  derepression in vivo: severe derepression
  β-galactosidase expression (Miller units) in mid-exponential cells: 130 Miller units

B2: S215F (protein, UniProt P39779 2-259, looked up, variant S215F)
Global transcriptional …: ALLQKTRIINSMLQAAAGKPVNFKEMAETLRDVIDSNIFVVSRRGKLLGYSINQQIENDRMKKMLEDRQFPEEYTKNLFNVPETSSNLDINSEYTAFPVENRDLFQAGLTTIVPIIGGGERLGTLILSRLQDQFNDDDLILAEYGATVVGMEILREKAEEIEEEARSKAVVQMAISSLSYSELEAIEHIFEELDGNEGLLVASKIADRVGITRFVIVNALRKLESAGVIESRSLGMKGTYIKVLNNKFLIELENLKSH
Dpp promoter region; [9]
  Kd: 350 to 400 nM
dpp-lacZ
  derepression in vivo: severe derepression
  β-galactosidase expression (Miller units) in mid-exponential cells: 12 Miller units

B3: R214E (protein, UniProt P39779 2-259, looked up, variant R214E)
Global transcriptional …: ALLQKTRIINSMLQAAAGKPVNFKEMAETLRDVIDSNIFVVSRRGKLLGYSINQQIENDRMKKMLEDRQFPEEYTKNLFNVPETSSNLDINSEYTAFPVENRDLFQAGLTTIVPIIGGGERLGTLILSRLQDQFNDDDLILAEYGATVVGMEILREKAEEIEEEARSKAVVQMAISSLSYSELEAIEHIFEELDGNEGLLVASKIADRVGITESVIVNALRKLESAGVIESRSLGMKGTYIKVLNNKFLIELENLKSH
Dpp promoter region; [9]
  Kd: > 500 nM
Dpp promoter region; [10]
  Kd: > 500 nM
dpp-lacZ
  derepression in vivo: severe derepression
  β-galactosidase expression (Miller units) in mid-exponential cells: 94 Miller units

B4: V218D (protein, UniProt P39779 2-259, looked up, variant V218D)
Global transcriptional …: ALLQKTRIINSMLQAAAGKPVNFKEMAETLRDVIDSNIFVVSRRGKLLGYSINQQIENDRMKKMLEDRQFPEEYTKNLFNVPETSSNLDINSEYTAFPVENRDLFQAGLTTIVPIIGGGERLGTLILSRLQDQFNDDDLILAEYGATVVGMEILREKAEEIEEEARSKAVVQMAISSLSYSELEAIEHIFEELDGNEGLLVASKIADRVGITRSVIDNALRKLESAGVIESRSLGMKGTYIKVLNNKFLIELENLKSH
Dpp promoter region; [9]
  Kd: 150 to 200 nM
dpp-lacZ
  derepression in vivo: severe derepression
  β-galactosidase expression (Miller units) in mid-exponential cells: 14 Miller units

B5: S215T (protein, UniProt P39779 2-259, looked up, variant S215T)
Global transcriptional …: ALLQKTRIINSMLQAAAGKPVNFKEMAETLRDVIDSNIFVVSRRGKLLGYSINQQIENDRMKKMLEDRQFPEEYTKNLFNVPETSSNLDINSEYTAFPVENRDLFQAGLTTIVPIIGGGERLGTLILSRLQDQFNDDDLILAEYGATVVGMEILREKAEEIEEEARSKAVVQMAISSLSYSELEAIEHIFEELDGNEGLLVASKIADRVGITRTVIVNALRKLESAGVIESRSLGMKGTYIKVLNNKFLIELENLKSH
Dpp promoter region; [9]
  Kd: > 500 nM
dpp-lacZ
  β-galactosidase expression (Miller units) in mid-exponential cells: 150 Miller units
  derepression of expression in vivo: 2 fold

B6: V218A (protein, UniProt P39779 2-259, looked up, variant V218A)
Global transcriptional …: ALLQKTRIINSMLQAAAGKPVNFKEMAETLRDVIDSNIFVVSRRGKLLGYSINQQIENDRMKKMLEDRQFPEEYTKNLFNVPETSSNLDINSEYTAFPVENRDLFQAGLTTIVPIIGGGERLGTLILSRLQDQFNDDDLILAEYGATVVGMEILREKAEEIEEEARSKAVVQMAISSLSYSELEAIEHIFEELDGNEGLLVASKIADRVGITRSVIANALRKLESAGVIESRSLGMKGTYIKVLNNKFLIELENLKSH
Dpp promoter region; [9]
  Kd: 100 to 200 nM
Dpp promoter region; [10]
  Kd: 250 to 500 nM

B7: WT: wild-type B. subtilis CodY, a GTP-activated repressor protein (protein)
chain: ALLQKTRIINSMLQAAAGKPVNFKEMAETLRDVIDSNIFVVSRRGKLLGYSINQQIENDRMKKMLEDRQFPEEYTKNLFNVPETSSNLDINSEYTAFPVENRDLFQAGLTTIVPIIGGGERLGTLILSRLQDQFNDDDLILAEYGATVVGMEILREKAEEIEEEARSKAVVQMAISSLSYSELEAIEHIFEELDGNEGLLVASKIADRVGITRSVIVNALRKLESAGVIESRSLGMKGTYIKVLNNKFLIELENLKSH
Dpp promoter region; [9]
  Kd: 20 nM
Dpp promoter region; [10]
  Kd: 150 nM
dpp-lacZ
  β-galactosidase expression (Miller units) in mid-exponential cells: 6 Miller units

B8: R214K (protein, UniProt P39779 2-259, looked up, variant R214K)
Global transcriptional …: ALLQKTRIINSMLQAAAGKPVNFKEMAETLRDVIDSNIFVVSRRGKLLGYSINQQIENDRMKKMLEDRQFPEEYTKNLFNVPETSSNLDINSEYTAFPVENRDLFQAGLTTIVPIIGGGERLGTLILSRLQDQFNDDDLILAEYGATVVGMEILREKAEEIEEEARSKAVVQMAISSLSYSELEAIEHIFEELDGNEGLLVASKIADRVGITKSVIVNALRKLESAGVIESRSLGMKGTYIKVLNNKFLIELENLKSH
dpp-lacZ
  derepression of expression in vivo: 2 fold
